Reference: patent US20020123614A1

Columns and labels:
iC3b coated on plastic [1] = biological target: iC3b coated on plastic (UniProt P01024); assay: cell adhesion to immobilized iC3b; -DTT, +activation
iC3b coated on plastic [2] = biological target: iC3b coated on plastic (UniProt P01024); assay: cell adhesion to immobilized iC3b; -DTT, -activation
iC3b coated on plastic [3] = biological target: iC3b coated on plastic (UniProt P01024); assay: cell adhesion to immobilized iC3b; +DTT, +activation
[4] = biological target: LFA-1 high affinity open mutant K287C/K294C (αL K287C/K294C with β2) (human) (UniProt P05107); assay: K562 cell adhesion to immobilized ICAM-1
[5] = biological target: wild-type LFA-1 (αL/β2 complex) (human) (UniProt P05107); assay: K562 (+CBRLFA-1/2) cell adhesion to immobilized ICAM-1
[6] = biological target: LFA-1 low affinity closed mutant L289C/K294C (αL L289C/K294C with β2) (human) (UniProt P05107); assay: flow cytometry, K562; normalised to TS2/4
[7] = biological target: LFA-1 high affinity open mutant K287C/K294C (αL K287C/K294C with β2) (human) (UniProt P05107); assay: flow cytometry, K562; normalised to TS2/4
[8] = biological target: LFA-1 low affinity closed mutant L289C/K294C (αL L289C/K294C with β2) (human) (UniProt P05107); assay: flow cytometry, 293T; normalised to TS2/4
[9] = biological target: LFA-1 high affinity open mutant K287C/K294C (αL K287C/K294C with β2) (human) (UniProt P05107); assay: flow cytometry, 293T; normalised to TS2/4
[10] = biological target: LFA-1 single cysteine substitution mutant L289C (human) (UniProt P05107); assay: flow cytometry, 293T; normalised to TS2/4
[11] = biological target: LFA-1 single cysteine substitution mutant K294C (human) (UniProt P05107); assay: flow cytometry, 293T; normalised to TS2/4
[12] = biological target: LFA-1 single cysteine substitution mutant K287C (human) (UniProt P05107); assay: flow cytometry, 293T; normalised to TS2/4
[13] = biological target: wild-type LFA-1 (αL/β2 complex) (human) (UniProt P05107); assay: cell adhesion to immobilized ICAM-1
[14] = biological target: LFA-1 high affinity open mutant K287C/K294C (αL K287C/K294C with β2) (human) (UniProt P05107); assay: 293T cell adhesion to immobilized ICAM-1
[15] = biological target: wild-type LFA-1 (αL/β2 complex) (human) (UniProt P05107); assay: 293T cell adhesion to immobilized ICAM-1
[16] = biological target: LFA-1 high affinity open mutant K287C/K294C (αL K287C/K294C with β2) (human) (UniProt P05107); assay: flow cytometry on transfectants
[17] = biological target: isolated mutant K287C/K294C αL I-domain (V130-A338) expressed on K562 cells by the PDGFR transmembrane domain (human) (UniProt P20701); assay: flow cytometry
Chain of isolated mutant K287C/K294C αL I-domain (V130-A338) expressed on K562 cells by the PDGFR transmembrane domain (human) (P20701 155-363 K312C/K319C limits assumed, form in doubt): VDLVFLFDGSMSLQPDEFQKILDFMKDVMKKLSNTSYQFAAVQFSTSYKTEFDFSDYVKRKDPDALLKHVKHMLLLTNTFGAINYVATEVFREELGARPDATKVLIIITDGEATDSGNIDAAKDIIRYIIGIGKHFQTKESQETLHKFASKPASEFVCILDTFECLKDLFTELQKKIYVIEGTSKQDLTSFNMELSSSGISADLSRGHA

[18] = biological target: LFA-1 high affinity open mutant K287C/K294C (αL K287C/K294C with β2) (human) (UniProt P05107); assay: flow cytometry, K562; normalised to TS1/22
[19] = biological target: ICAM-1 purified from human tonsil, immobilized (human) (UniProt P05362); assay: 293T K287C/K294C LFA-1 cell adhesion to immobilized ICAM-1
Chain of ICAM-1 purified from human tonsil, immobilized (human) (P05362 28-532 limits assumed, form in doubt): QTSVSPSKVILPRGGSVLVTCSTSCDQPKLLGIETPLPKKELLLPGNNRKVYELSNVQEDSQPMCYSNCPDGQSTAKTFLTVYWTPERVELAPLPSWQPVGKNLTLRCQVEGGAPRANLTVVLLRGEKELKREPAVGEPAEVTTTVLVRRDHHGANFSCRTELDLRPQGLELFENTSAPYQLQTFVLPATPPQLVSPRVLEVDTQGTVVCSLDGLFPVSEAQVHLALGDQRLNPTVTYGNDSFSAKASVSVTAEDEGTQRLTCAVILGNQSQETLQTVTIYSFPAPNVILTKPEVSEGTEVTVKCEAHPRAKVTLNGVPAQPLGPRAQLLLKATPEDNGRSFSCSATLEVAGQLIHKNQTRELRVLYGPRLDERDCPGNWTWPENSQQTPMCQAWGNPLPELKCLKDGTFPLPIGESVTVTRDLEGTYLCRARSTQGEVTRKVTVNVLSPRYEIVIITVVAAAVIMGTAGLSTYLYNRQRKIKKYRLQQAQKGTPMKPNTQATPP

[20] = biological target: ICAM-1 purified from human tonsil, immobilized (human) (UniProt P05362); assay: 293T wild-type LFA-1 cell adhesion to immobilized ICAM-1
[21] = biological target: LFA-1 high affinity open mutant K287C/K294C (αL K287C/K294C with β2) (human) (UniProt P05107); assay: cell adhesion to immobilized ICAM-1

Substance	% inhibition [4] [%]	% inhibition [5] [%]	% wild-type binding [6] [%]	% wild-type binding [7] [%]	% wild-type binding [8] [%]	% wild-type binding [9] [%]	% wild-type binding [10] [%]	% wild-type binding [11] [%]	% wild-type binding [12] [%]	% inhibition [13] [%]	% inhibition [14] [%]	% inhibition [15] [%]	further results
Mac-1 (αMβ2) mutant D294C/T307C (from UniProt P05107 23-769) (receptor)													percent of binding by activated wild type transfectant (iC3b coated on plastic [1]): 5 to 25%; percent of binding by activated wild type transfectant (iC3b coated on plastic [2]): 0 to 5%
Mac-1 (αMβ2) mutant F297C/A304C (from UniProt P05107 23-769) (receptor)													percent of binding by activated wild type transfectant (iC3b coated on plastic [2]): 0 to 5%
Mac-1 (αMβ2) mutant Q163C/R313C (locked closed) (from UniProt P05107 23-769) (receptor)													percent of binding by activated wild type transfectant (iC3b coated on plastic [1]): 0 to 5%; percent of binding by activated wild type transfectant (iC3b coated on plastic [2]): 0 to 5%; percent of binding by activated wild type transfectant (iC3b coated on plastic [3]): 50 to 75%
Mac-1 (αMβ2) mutant Q298C/N301C (from UniProt P05107 23-769) (receptor)													percent of binding by activated wild type transfectant (iC3b coated on plastic [1]): 5 to 25%; percent of binding by activated wild type transfectant (iC3b coated on plastic [2]): 0 to 5%
monoclonal antibody 6.5E	5.79	98.4								> 90			
monoclonal antibody 25-3-1	2.53	92	85.7	88.5	90.9	93.1				> 90	3.71	90.5	
monoclonal antibody CBRLFA-1/9	3.6	97.8											% wild-type binding [18]: 84.7%
monoclonal antibody CLBLFA-1/1	6.69	94.6	100	96.5						> 90			
monoclonal antibody RR1/1													% inhibition [19]: 97.9%; % inhibition [20]: 96%
mouse anti-human αL (CD11a) monoclonal antibody TS1/12	63.7	97.5	106	87.3	102	88.7	104	93.7	99.3	> 90	49	95.7	% inhibition [21]: 40 to 60%
mouse anti-human αL (CD11a) monoclonal antibody TS2/4	2.82	6.99											

Continued, in another order:

% inhibition [4] [%]	% inhibition [5] [%]	% wild-type binding [6] [%]	% wild-type binding [7] [%]	% wild-type binding [8] [%]	% wild-type binding [9] [%]	% wild-type binding [10] [%]	% wild-type binding [11] [%]	% wild-type binding [12] [%]	% inhibition [13] [%]	% inhibition [14] [%]	% inhibition [15] [%]	Substance	further results
5.77	5.04	97.2	95.2	91.7	95.3							anti-β2 (CD18) monoclonal antibody CBRLFA-1/7	
5.9	98.5	106	97.4	95.7	99.8	87.3	108	87.9	> 90			anti-β2 (CD18) monoclonal antibody TS1/18	
0.08	98.4	111	101	95.1	103				> 90			mAb YFC51 (antibody)	
90.7	97.5	97.6	92.4	85.8	92.4	92.4	88.3	93.3		91.1	97	monoclonal antibody BL5	
2.85	94.7	118	55.5	95.9	43.6	93.3	89.4	86.1	> 90	9.03	92.5	monoclonal antibody CBRLFA-1/1	% of wild-type binding [16]: 40 to 50%; % of binding to the wild-type I-domain [17]: 80%
98.2	97.6	93.9	102	83.6	93.7	99.6	95.5	95.9		91.9	94.5	monoclonal antibody F8.8	
2.98	97.8								> 90			monoclonal antibody May.017	
93.3	95.8	101	92.6	82.1	92.6	95.4	106	95.8		97.4	96.2	monoclonal antibody May.035	
9.7	6.19	85.7	97.4	95.3	89.4	86.4	92.3	98.3				monoclonal antibody S6F1	
41.3	96.5	105	96	93.7	94.4				> 90	45.2	94.1	mouse anti-human αL (CD11a) monoclonal antibody TS1/11	% inhibition [21]: 40 to 60%
93.6	96.9	110	93.1	91	95.8	96.2	92.2	103		95.1	95.8	mouse anti-human αL (CD11a) monoclonal antibody TS1/22	
88.1	91.8	95.9	89.2	78.6	84.9	88.2	91.7	91.4		79.1	96.8	mouse anti-human αL (CD11a) monoclonal antibody TS2/6	
8.55	96.2	103	95.4	83.3	85.5	100	103	103	> 90	2.95	94.5	mouse anti-human αL (CD11a) monoclonal antibody TS2/14	
